From patent publication US20030064496

B1: purified mouse MEKK2 (protein)
chain: MDDQQALNSIMQDLAVLHKASRPALSLQETRKAKPSSPKKQNDVRVKFEHRGEKRILQVTRPVKLEDLRSKSKIAFGQSMDLHYTNNELVIPLTTQDDLDKAVELLDRSIHMKSLKILLVVNGSTQATNLEPSPSPEDLNNTPLGAERKKRLSVVGPPNRDRSSPPPGYIPDILHQIARNGSFTSINSEGEFIPESMDQMLDPLSLSSPENSGSGSCPSLDSPLDGESYPKSRMPRAQSYPDNHQEFTDYDNPIFEKFGKGGTYPRRYHVSYHHQEYNDGRKTFPRARRTQGTSFRSPVSFSPTDHSLSTSSGSSVFTPEYDDSRIRRRGSDIDNPTLTVTDISPPSRSPRAPTNWRLGKLLGQGAFGRVYLCYDVDTGRELAVKQVQFNPESPETSKEVNALECEIQLLKNLLHERIVQYYGCLRDPQEKTLSIFMELSPGGSIKDQLKAYGALTENVTRKYTRQILEGVHYLHSNMIVHRDIKGANILRDSTGNIKLGDFGASKRLQTICLSGTGMKSVTGTPYWMSPEVISGEGYGRKADIWSVACTVVEMLTEKPPWAEFEAMAAIFKIATQPTNPKLPPHVSDYTRDFLKRIFVEAKLRPSAEELLRHMFVHYH
B2: His-tagged hMEKK2 (polyhistidine-hMEKK2 fusion) (protein)
chain: HHHHHHMDDQQALNSIMQDLAVLHKASRPALSLQETRKAKSSSPKKQNDVRVKFEHRGEKRILQFPRPVKLEDLRSKAKIAFGQSMDLHYTNNELVIPLTTQDDLDKAVELLDRSIHMKSLKILLVINGSTQATNLEPLPSLEDLDNTVFGAERKKRLSIIGPTSRDRSSPPPGYIPDELHQVARNGSFTSINSEGEFIPESMDQMLDPLSLSSPENSGSGSCPSLDSPLDGESYPKSRMPRAQSYPDNHQEFSDYDNPIFEKFGKGGTYPRRYHVSYHHQEYNDGRKTFPRARRTQGTSLRSPVSFSPTDHSLSTSSGSSIFTPEYDDSRIRRRGSDIDNPTLTVMDISPPSRSPRAPTNWRLGKLLGQGAFGRVYLCYDVDTGRELAVKQVQFDPDSPETSKEVNALECEIQLLKNLLHERIVQYYGCLRDPQEKTLSIFMEYMPGGSIKDQLKAYGALTENVTRKYTRQILEGVHYLHSNMIVHRDIKGANILRDSTGNVKLGDFGASKRLQTICLSGTGMKSVTGTPYWMSPEVISGEGYGRKADIWSVACTVVEMLTEKPPWAEFEAMAAIFKIATQPTNPKLPPHVSDYTRDFLKRIFVEAKLRPSADELLRHMFVHYH

Molecular target: GST-MKK4 fusion protein (Upstate Biotechnologies, Inc) [GST: P08515]

Protein	phosphorylation of GST-MKK4 in a kinase reaction with [gamma-32P]-ATP (SDS-PAGE, phosphorimager)
B1	The ability of extracts containing his-tagged hMEKK2 to phosphorylate GST-MKK4 was comparable to the activity of purified mouse MEKK2
B2	comparable to the activity of purified mouse MEKK2, and significantly above the background levels seen with control extracts
